Biological target: mPiezo1-ALFA_(2420)-HRV3C-GFP (mouse (printed only as mPiezo1)) (UniProt E2JF22)
Assay: SEC; Superose-6 (10/300 GL) in 150 mM NaCl, 20 mM tris pH 8, 0.025% C12E10, 4°C
Details: remark: other sources report otherwise

stoichiometry N: 3
Substance: mPiezo1-ALFA_(2420)-HRV3C-GFP, E2JF22 1-2547
